Measurements from patent US20190016810A1, “METHODS FOR TREATING OR PREVENTING GRAFT-VERSUS-HOST DISEASE INVOLVING THE ADMINISTRATION OF ANTI-CCR5 RECEPTOR AGENTS” (CytoDyn Inc., priority 2017, published 2019).
“Also recorded” adds a separate entry of the source.

Tests used:
[1] = in vivo; cited from earlier work
[2] = molecular target: T1, CCR5 (Homo sapiens, UniProt P51681); conditions: activated human T cells, cited from earlier work
[3] = test system: engrafted human cells (CD45+, CD3+); experiment: Flow cytometry analysis of engrafted human cells in peripheral blood, spleen and bone marrow of NSG mice; assay type: in vivo; conditions: for CD45+ cells in peripheral blood at the time of euthanasia: control 64%
Description: Peripheral blood (PB), bone marrow (BM), and spleen (SPL) samples were analyzed by flow cytometry. Splenocytes were passed through a […] strainer. Erythrocytes were lysed with ammonium chloride. Cells were washed twice with PBS and stained for 15 min at 4 deg C. in PBS/0.5 mM EDTA/0.5% BSA with the following antibodies: anti-human-CD3-FITC (clone UCHT1, IM1281U), anti-human-CD45-PC7 (clone J.33, 1M3548U), Beckman/Coulter. Samples were analyzed on a Cytomics FC500 Flow Analyzer (Beckman/Coulter).

[4] = molecular target: T1, CCR5; design: host or cells: CHO-K1; conditions: CHO-K1 cells, cited from earlier work
[5] = test system: HIV-1; conditions: at concentrations that do not affect CCR5 chemokine receptor activity; in vitro and hu-PBL-SCID mouse model; cited from earlier work
[6] = molecular target: T1, CCR5; conditions: CD4+ T cells, cited from earlier work
[7] = molecular target: T1, CCR5; experiment: Tyrosine kinase phosphorylation downstream of CCR5 receptor signaling in T cells in vitro; assay type: cell-based; design: tyrosine kinase phosphorylation downstream of CCR5 receptor signaling in T cells in vitro; endogenous in cells; host or cells: T cells
Excerpt: Thus, it is shown that PRO 140's activity as a CCL5 competitive binding inhibitor has a mixed impact on CCL5's ability to participate in downstream activity conventionally associated with the CCR5/CCL5 axis. Further elucidation of the role of PRO 140 and its immunomodulatory effects is the subject of continued investigation.

[8] = test system: xeno-GVHD in NSG mice; experiment: xeno-GVHD in NSG mice engrafted with human bone marrow cells: physical signs, weight, survival
Description: Animal experiments were conducted in accordance with the ethical standards and according to national and international guidelines and were approved by the Cleveland Clinic Institutional Animal Care and Use Committee. Male NSG mice, NOD.Cg-Prkdc^scidIl2ry^tm1wjl/SzJ (NOD-scid IL2ry^null, NSG) mice were obtained from the Jackson Laboratory (Bar Harbor, Me., USA), and athymic nude (nu/nu) (Taconic, Hudson, N.Y.) 6-8 wk old were used. Mice were housed in a barrier facility in cages with microisolator lids, autoclaved bedding, and HEPA-filtered air, and maintained under 12:12 light/dark cycles, controlled temperature and humidity. […] Conditioning regimen: Mice received 2.25 Gy total body irradiation via a 137Cs source (Shepherd, Los Angeles Calif.).
Following gamma irradiation (24 h later) mice were engrafted with human BM cells. De-identified human donor cells were obtained by back-flushing filter packs utilized by the Cleveland Clinic BMT program. Fresh (non-frozen) leukocytes were purified by Ficoll-Hypaque gradient centrifugation, washed in phosphate buffered saline (PBS), assessed for viability (ViCell, Beckman Coulter, Brea, Calif.). Human BM leukocytes were injected into the lateral tail vein (10^7 cells/mouse). Mice were monitored for clinical symptoms of GVHD (body posture, activity, fur and skin condition, weight loss) two times/wk. Peripheral blood was monitored weekly for engraftment utilizing saphenous vein venipuncture (50 mL) collected in K-EDTA tubes.
Mice were randomized into control and treatment groups by body weight. PRO 140 was administered on different doses (0.2-2.0 mg/kg) and schedules. The route was always intraperitoneal (i.p.). Control mice received normal human IgG (Sigma Aldrich, St. Louis, Mo.).
Starting with the human dose of PRO 140=5.8 mg/kg×12 (man-to-mouse conversion factor)=69.6 mg/kg mouse dose; average mouse=0.025 kg, therefore dose is 69.6 mg/kg×0.025 kg=1.74 mg (mouse single dose). This was rounded up to 2.0 mg and designated as the “high dose”. A “low dose” (0.2 mg) was also tested. IgG derived from human serum (>95% SDS-PAGE, Sigma, I4506) was used as a non-specific control antibody.
Statistical analysis was performed using GraphPad Prism (GraphPad Software, La Jolla, Calif.). All measures of variance were depicted as standard error of the mean (SEM). Survival was analyzed by the Kaplan-Meier method and Mantel-Cox log-rank test. For other data, two-sided unpaired Students t-test was used.

T1 sequence (P51681 whole entry): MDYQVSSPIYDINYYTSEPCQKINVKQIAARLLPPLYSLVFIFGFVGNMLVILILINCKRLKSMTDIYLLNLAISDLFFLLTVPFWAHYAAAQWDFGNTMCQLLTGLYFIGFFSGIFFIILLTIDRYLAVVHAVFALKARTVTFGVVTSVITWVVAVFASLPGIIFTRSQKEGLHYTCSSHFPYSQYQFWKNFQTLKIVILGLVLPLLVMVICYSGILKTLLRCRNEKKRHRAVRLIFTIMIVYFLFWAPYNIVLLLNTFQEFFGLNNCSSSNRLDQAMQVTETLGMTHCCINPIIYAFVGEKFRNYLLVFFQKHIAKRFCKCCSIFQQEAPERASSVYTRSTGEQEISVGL

Cc1nnc(C(C)C)n1C1C[C@H]2CC[C@@H](C1)N2CC[C@H](NC(=O)C1CCC(F)(F)CC1)c1ccccc1 (stereo in doubt) [maraviroc]
incidence of gastrointestinal and liver GVHD [1]: dramatically decreases the incidence of gastrointestinal and liver GVHD
production of TNF-α and IFN-γ ([2]; high doses): tends to decrease production of TNF-α and IFN-γ
CCR5 and CCR2 internalization induced by CCL5 and CCL2 [2]: can block CCR5 and CCR2 internalization processes
T cell chemotactic activities toward cognate ligands [2]: inhibit T cell chemotactic activities

B1: PRO 140: humanized monoclonal antibody to CCR5, humanized version of the murine mAb PA14; competitive inhibitor of CCL5 binding to CCR5 receptor (antibody, chains of the INN, looked up, V domains shown)
VH: EVQLVESGGGLVKPGGSLRLSCAASGYTFSNYWIGWVRQAPGKGLEWIGDIYPGGNYIRNNEKFKDKTTLSADTSKNTAYLQMNSLKTEDTAVYYCGSSFGSNYVFAWFTYWGQGTLVTVSS
VL: DIVMTQSPLSLPVTPGEPASISCRSSQRLLSSYGHTYLHWYLQKPGQSPQLLIYEVSNRFSGVPDRFSGSGSGTDFTLKISRVEAEDVGVYYCSQSTHVPLTFGQGTKVEIK
effect on engraftment ([3]; bone marrow at the time of euthanasia): did not inhibit engraftment; also recorded: did not negatively affect engraftment
CD45+ cells in bone marrow versus control at the time of euthanasia ([3]; compared with control IgG mice): no differences
CD45+ cells in spleen at the time of euthanasia ([3]; control 58-59%, p<0.05): 41%
CD45+ cells in peripheral blood at the time of euthanasia ([3]; p<0.05): 46%
CD45+ cells in peripheral blood at the time of euthanasia ([3]; p<0.05, listed as Pro 140): 45%
mouse hematopoietic cells (mouse CD45) in bone marrow ([3]; high dose cohort, Day 75): 28%
mouse hematopoietic cells (mouse CD45) in peripheral blood ([3]; high dose cohort, Day 75): 14.9%
mature T-cells (CD45/CD3) in bone marrow at 54 days ([3]; high dose cohort, FIG. 6 BM panel E2 quadrant, control 40.2%): 26.4%
mature T-cells (CD45/CD3) in peripheral blood at 54 days ([3]; high dose cohort, FIG. 6 PB panel E2 quadrant, control 63.2%): 49.8%
human CD45+ cells in peripheral blood versus control at day 50 ([3]; high dose, compared with control IgG mice): significantly lower
human CD45+ cells in peripheral circulation at 50 days ([3]; high dose, control 62%, p=0.034): 43%
delay until the same percentage of CD45+ engraftment as control ([3]; low dose (0.2 mg), peripheral blood, P<0.01): approximately 20 days
divergence in engraftment from control, start ([3]; low dose cohort (0.2 mg)): 15 days
effect on chemotaxis, alone ([4]; PRO 140 alone): does not affect chemotaxis
effect on CCL5-induced chemotaxis ([4]; with CCL5): does reduce CCL5-induced chemotaxis
HIV-1 entry and replication [5]: potently inhibits HIV-1 entry and replication
effect on cAMP levels, added alone ([6]; PRO 140 alone): does not affect cAMP levels
effect on cAMP levels, administered with CCL5 ([6]; with CCL5): does diminish the effect of CCL5 on cAMP levels
effect on tyrosine kinase phosphorylation, alone ([7]; PRO 140 alone): does not affect tyrosine kinase phosphorylation
effect on phosphorylation of tyrosine kinases by CCL5 ([7]; with CCL5): does not inhibit phosphorylation of such kinases by CCL5
survival (Kaplan-Meier), low dose ([8]; PRO 140 0.2 mg i.p., BM from donor, control animals all dead by 31 days): ≤ 54 days
start of physical signs of GvHD and weight loss, low dose ([8]; PRO 140 0.2 mg i.p., control mice starting at day 20): 25 to 28 days
mean weight at about 20 days ([8]; PRO 140 2.0 mg i.p. twice/wk started day 1, about 20 days after engraftment): about 23.0 gm
mean weight at about 52 days ([8]; PRO 140 2.0 mg i.p. twice/wk started day 1, about 52 days after engraftment): about 23.6 gm
survival (Kaplan-Meier), high dose ([8]; PRO 140 2.0 mg i.p. twice/wk started day 1, sacrificed at 70 days, control IgG animals all dead by 56 days): ≥ 70 days
physical signs / symptoms of GVHD ([8]; high dose (2.0 mg i.p. twice/wk), 70-day study period): did not exhibit any symptoms associated with GVHD; also recorded: no physical signs of GVHD
weight course ([8]; high dose (2.0 mg i.p. twice/wk), control mice lost weight): gained weight; also recorded: continued to gain weight
survival ([8]; past 70 days, xeno-transplant animal model, NSG mice upon HSC engraftment): 100%
